Assay [1] deals with H1N1 Influenza A/Ca/04/09. Put plainly: Comparison to treatment with Tamiflu in infected mice. It counts as in vivo.
Assay [2] addresses H1 HA. The format is binding, influenza A. Particulars: read-out: affinity.
Assay [3] concerns the target H5 HA. It counts as binding, influenza A. Particulars: read-out: affinity.
The target in assay [4] is H3 HA. It counts as binding, influenza A. Particulars: read-out: affinity.
Assay [5] concerns H1N1. It counts as cell-based, influenza A.
Assay [6] concerns H7N3. It counts as cell-based, influenza A.
In assay [7] the test system is H5N1. It counts as cell-based, influenza A.
The test system of assay [8] is H9N2. The format is cell-based, influenza A.
In assay [9] the target is H3N2 A/Perth/16/2009 HA. It counts as binding, influenza A.
The target in assay [10] is H3N2 A/New York/55/2004 HA. Briefly: Affinity by FortéBio. The format is binding, influenza A.
Assay [11] addresses H3N2 A/Hong Kong/8/68 HA. The format is binding, influenza A.
Assay [12] concerns the target H7N7 A/Netherlands/219/03 HA. It counts as binding, influenza A.
Assay [13] addresses H7N3 A/Canada/rv444/04 HA. It counts as binding, influenza A.
Assay [14] concerns H3N2 A/Perth/16/2009. Put plainly: MDCK monolayer microneutralization assay. It counts as cell-based, influenza A.
In assay [15] the test system is H3 A/Phillipines/2/82 x-79. Briefly: MDCK monolayer microneutralization assay. The format is cell-based, influenza A.
The subject of assay [16] is H3 A/Udorn/307/1976. Briefly: MDCK monolayer microneutralization assay. The format is cell-based, influenza A.
The subject of assay [17] is H3N2 A/New York/55/2004. Put plainly: MDCK monolayer microneutralization assay. The format is cell-based, influenza A.
The test system of assay [18] is H3N2 A/Wisconsin/67/2005. Put plainly: MDCK monolayer microneutralization assay. The format is cell-based, influenza A.
The test system of assay [19] is H3N2 A/Hong Kong/8/68 (A/HongKong/68). Put plainly: MDCK monolayer microneutralization assay. The format is cell-based, influenza A.
In assay [20] the test system is H3 A/SW/MN/02719. It counts as cell-based, influenza A.
In assay [21] the test system is H4 (H4N4) A/Bufflehead. The format is cell-based, influenza A.
The test system of assay [22] is H7N3 A/Canada/rv444/04. It counts as cell-based, influenza A.
Assay [23] relates to H7N7 A/Netherlands/219/03. It counts as cell-based, influenza A.
The test system of assay [24] is H7 A/Sanderling/A106-125. Put plainly: MDCK monolayer microneutralization assay. The format is cell-based, influenza A. Particulars: H7 A/Sanderling/A106-125, bird virus.
Assay [25] concerns H7 A/Redknot/NJ/1523470/06. Put plainly: MDCK monolayer microneutralization assay. The format is cell-based, influenza A. Particulars: H7 A/Redknot/NJ/1523470/06, bird virus.
Assay [26] relates to H7 A/Ruddy Turnstone/A106-892. Put plainly: MDCK monolayer microneutralization assay. Particulars: H7 A/Ruddy Turnstone/A106-892, bird virus. The format is cell-based, influenza A.
Assay [27] concerns H10 (H10N7) A/Northern Shoveler. The format is cell-based, influenza A.
Assay [28] relates to H3N2: A/Perth/16/09. Also on record: species or system mice. Particulars: mouse, in vivo, ip, 10 mg/kg.
Assay [29] has as its system H7N3: A/Red Knot/NJ/1523470/06. Also on record: species or system mice. Particulars: mouse, in vivo, ip, 10 mg/kg.
In assay [30] the test system is A/Ca/04/09 (H1N1). Put plainly: In vivo efficacy, treatment at Day 2. The arrangement: species or system mice. Particulars: IP at Day 2, 10 mg/kg (mixture 10 mg/kg each), FIGS. 6A, 6C.
Assay [31] concerns Philippines 2/82. Also on record: species or system mice. Particulars: mouse, in vivo.
The test system of assay [32] is H3. Put plainly: Binding by MAB579 in vitro (FIG. 2). Also on record: species or system influenza A. Particulars: H3, FIG. 2.
The subject of assay [33] is H7. Put plainly: Binding by MAB579 in vitro (FIG. 2). Also on record: species or system influenza A. Particulars: H7, FIG. 2.
For assay [34], the system named is H1. Put plainly: Binding by MAB579 in vitro (FIG. 2). Also on record: species or system influenza A. Particulars: H1, FIG. 2.
The target of assay [35] is HA of clades spanning Group 2. Briefly: Standard FortéBio assay (FIG. 3B). It counts as binding, influenza A. Particulars: Group 2, FIG. 3B. Background: BLI is a label-free optical method that tracks binding on a fibre tip over time.

The results in this text go back to patent US10654915B2, “Antibodies useful in passive influenza immunization” (priority 2011, dated 2020).

Like-named read-outs stand apart in the source and are kept apart here.

`CCOC(=O)C1=C[C@@H](OC(CC)CC)[C@H](NC(C)=O)[C@@H](N)C1` [Tamiflu, oseltamivir phosphate, reference compound]: the survival result in assay [1] (10 mice per group, treatment from Day +1, to Day 14) is on record as “all but two mice were dead before eight days post infection”. Besides, the “weight attained, of the original weight” value in assay [1] (by Day 14) is 92%. For the same molecule, the “day at which decline in weight was reversed” value in assay [1] (treatment from Day +1) was no more than 6 days.

B1: MAB8 (antibody)
VH: EVQLVESGGGLVKPGGSLRLSCAASGFTFSTYTMSWVRQAPGQGLEWVSSITRTSSNIYYADSVEGRFTISRDNAKNSLYLQMHSLRVEDTAVYYCARISGVVGPVPFDYWGQGTLITVSS
light: DIQMTQSPSSLSASVGDRVTITCRASQTISKYLNWYQQKPGRAPKLLIYSASSLQSGVPSRFTGSGSGTDFTLTITSLQPEDFATYYCQQSYRPSQITFGPGTKVDIK
modifications: CHAIN (1)...(121) MAB8 heavy chain sequence of variable domain; CHAIN (1)...(108) MAB8 light chain sequence
On to B1, for which the values for the Kd in assay [2], in assay [3] and in [4] were 9 nM, 0.2 nM and 16 nM, respectively. The “neutralization of infection (in words)” value in assay [5], in [6], in assay [7] and in assay [8] was “does not neutralize infection” throughout.

B2: MAB579 (antibody, V domains shown)
VH: QVQLVQSGAEVKKPGASVKVSCKTSGYTFTAYTIHWVRQAPGQRLEWMGWINAGNGHTKYSQRFKGRVTITRDTSARTTYMELRSLTSEDTALYFCARGPETYYYDKTNWLNSHPDEYFQHWGHGTQVTVSS
VL: DIQMTQSPSTLSASVGDRVTITCRASQTINNYLAWYQQKPGKAPKLLIYKASSLESGVPSRFSGSGSGTEFTLTISSLQPDDFATYYCQEYNNDSPLTFGGGTKVEIK
modifications: CHAIN (1)...(132) MAB579 heavy chain sequence of variable domain; DOMAIN (31)...(35) CDR1; DOMAIN (50)...(67) CDR2; DOMAIN (99)...(121) CDR3; CHAIN (1)...(108) MAB579 light chain sequence of variable domain; DOMAIN (24)...(34) CDR1; DOMAIN (50)...(57) CDR2; DOMAIN (89)...(98) CDR3
Turning to B2, the Kd in assay [9] (read-out: Affinity by FortéBio) was 0.7 nM; in assay [9] (read-out: KD), 0.8 nM; in assay [10], 0.2 nM; in assay [11], 0.2 nM; in [12] (read-out: Affinity by FortéBio) it was 0.4 nM; in assay [12] (read-out: KD), 0.4 nM. The Kd in assay [13] was determined as 0.6 nM. Further, the IC50 – broadly, the concentration needed to halve the response being measured – is 0.2 µg/mL in [14] (H3 A/Perth/16/2009); 0.9 µg/mL in assay [15]; 1.9 µg/mL in assay [16]; 1.1 µg/mL in assay [17] (H3 A/New York/55/2004*); 1.0 µg/mL in assay [18] (H3 A/Wisconsin/67/2005); 2.8 µg/mL in assay [19] (H3 A/HongKong/68). Also, the “IC50” value was 3.9 µg/mL in assay [20]; 15.5 µg/mL in assay [21]; 1.6 µg/mL in assay [22]; 0.6 µg/mL in assay [23]; greater than 20 µg/mL in assay [24]; greater than 20 µg/mL in assay [25]. The “IC50” value in [26] is greater than 20 µg/mL; in assay [27], 0.8 µg/mL. Further, the “Potency Difference” value worked out at 40x in assay [14] (MAB579 vs CR8020 EC50, H3N2 A/Perth/16/2009); 5x in [17] (MAB579 vs CR8020 EC50, H3N2 A/New York/55/2004); 3x in [18] (MAB579 vs CR8020 EC50, H3N2 A/Wisconsin/67/2005); 3x in assay [19] (MAB579 vs CR8020 EC50, H3N2 A/Hong Kong/8/68); 3x in assay [21]; 20x in [23]. For the same molecule, the EC50 – broadly, the concentration that produces a half-maximal response – in assay [14] (in vitro neutralization, H3N2 A/Perth/16/2009) turned out to be 0.05 µg/mL; in [17] (in vitro neutralization, H3N2 A/New York/55/2004), 2.0 µg/mL; in [18] (in vitro neutralization, H3N2 A/Wisconsin/67/2005), 1.0 µg/mL; in assay [19] (in vitro neutralization, H3N2 A/Hong Kong/8/68), 2.0 µg/mL; in assay [21], 15.0 µg/mL; in [22] it was 0.5 µg/mL. Besides, the 50% effective concentration (EC50) in [23] was found to be 0.7 µg/mL; in assay [27] it was 0.8 µg/mL. Besides, the “therapeutic effectiveness (survival)” value in assay [28] and in assay [29] was “essentially fully effective” throughout. The protection / survival entry was “no survivors after 10 days” in [30] and “effective” in assay [31]. Besides, the results for the “binding affinity (in words)” value in assay [32], in assay [33] and in assay [34] were “tightly bound”, “tightly bound” and “negligible binding affinity”, respectively. The “affinity across clades (in words)” value in assay [35] is “sub-nM affinity”.
